Among the data in PMC9477280 (PLoS Pathogens, 2022) are EC50 values, retold here.

As usually defined, the EC50 is the concentration that produces a half-maximal response.

To fix the notation:
B1: JVA-D4 (VHH)
VHH: TGGGLAQAGGSLRLSCATSGFTFADYAIGWFRQAPGKEREGVACISTSDNGQYSADSVKGRFTISKDNAKKTVYLQMNSLKPDDTAIYYCHLIDVGSNCRKGKDDGFWGQGTQVTVSS
notes: also called αTir-10; JVF-4 (vector name); not shown: thioredoxin, N-terminal, kept; E-tag, C-terminal, kept
B2: JVA-A1 (VHH)
VHH: SGGSVEAGDSLRLSCAASGRGFGDGALAWFRQAPGKEREYVAAVGHSGTDTYYADSVKGRFTISRDNAKNMGYLQMDSLRPDDTGVYYCALDLHLGQPGYDYWGQGTQVTVSS
notes: also called αTir-7; JVF-1 (vector name); not shown: thioredoxin, N-terminal, kept; E-tag, C-terminal, kept
B3: JVA-C9 (VHH)
VHH: TGGGLVQAGGSLRLSCVDSGRTFGDNAMGWFRQAPGKEREYVAAIGYNGDSTYYLNSVKGRFTISRDNAKNTLYLQMNSLQLEDTGVYICAAKTRVTTKEYDFWGQGTQVTVSS
notes: also called αTir-9; JVF-3 (vector name); not shown: thioredoxin, N-terminal, kept; E-tag, C-terminal, kept
B4: JVC-E5 (VHH)
VHH: TGGGTVQAGSSLRLSCTASGFTFTDAAMGWFRQAPGKEREFVAAINWDSANKYYADSVKGRFTISRDNAKNTVYLEMTALKPEDTADYICAGDAKLGHVATSDVWRFWGQGTQVTVSS
notes: also called αTir-6; JVI-3 (vector name); not shown: thioredoxin, N-terminal, kept; E-tag, C-terminal, kept
B5: JVB-G4 (VHH)
VHH: SGGGLVEAGGSLRLSCSASGRASGDGHLGWFGDGALAWFRQAPGKEREYVAAVGHSGTDTYYSDSVKGRFTISRDNAKSMGYLQMDNLRPDDTGIYYCALDLHLGQPGYDYWGQGTQVIVSS
notes: also called αTir-2; JVG-2 (vector name); not shown: thioredoxin, N-terminal, kept; E-tag, C-terminal, kept
B6: JVA-D11 (VHH)
VHH: SGGGLVQAGGSLRLSCAASGFTFNDYAKAWFRRAPGKEREGISAISSMGESTFYADSVKGRFTISSDSAKNTVYLQMNSLKPEDTAVYYCAADPTVKWGHVLREENYDYWGQGTQVTVVS
notes: also called αTir-12; JVF-8 (vector name); not shown: thioredoxin, N-terminal, kept; E-tag, C-terminal, kept
B7: JVA-F6 (VHH)
VHH: SGGGLVQAGDSLRLSCVTSGRSFSEAAMGWFRQAPGKERELMTSIGWNGDRTYYADSVKGRFTISRDNAKNTVYLQMNGLTPNDTAVYYCAAAVRASKGYEYWGQGTQVTVSS
notes: also called αTir-11; JVF-7 (vector name); not shown: thioredoxin, N-terminal, kept; E-tag, C-terminal, kept
B8: JVA-E10 (VHH)
VHH: SGGGLVQAGGSLRLSCVASGRTFSDYAMGWFRQAPGKEREFVAAISWNGGSTYYADSVKGRFTISRDNAKNTMYLQMNSLKSEDTAVYYCISEGRGLRQVKTATDWEYWGQGTQVTVSP
notes: also called αTir-13; JVF-12 (vector name); not shown: thioredoxin, N-terminal, kept; E-tag, C-terminal, kept
B9: JVA-G1 (VHH)
VHH: SGGGLAQAGGSLKLSCVASGFTFADYAIGWFRQAPGKEREGVACISNSVGSTYYSDSVKGRVTISSDNVKKTVYLQMNSLKPEDTAFYYCALIDHGMNCRNSNGIHYWGKGTLVTVSS
notes: also called αTir-14; JVF-14 (vector name); not shown: thioredoxin, N-terminal, kept; E-tag, C-terminal, kept
B10: JVB-C6 (VHH)
VHH: TGGGLVQPGGSLTLSCAASGFSITENAMGWARQVPGKGLEWVSLVYSGGNTYYAESIEGRFTISRDNAKNTVYLRMTSLKPEDTGVYYCAAREAVRVAGPPADVWGQGTQVTVSS
notes: also called αTir-1; JVG-1 (vector name); not shown: thioredoxin, N-terminal, kept; E-tag, C-terminal, kept
B11: JVA-C8 (VHH)
VHH: SGGGLVQAGGSLRLSCAASGFTFVDYGIAWVRQAPGKEREGVSCVSTSNRSQWYADSVKGRFTISSDNAKNTVYLQMDNLKPEDTAVYYCTRIDVGDNCRDGGGYRGQGTQVTISS
notes: also called αTir-8; JVF-2 (vector name); not shown: thioredoxin, N-terminal, kept; E-tag, C-terminal, kept
B12: JVC-C6 (VHH)
VHH: SGGGLVQAGGSLRLSCAASGVTFVDYATGWFRQAPGKEREGIACISNGASGSFVVNSVKGRFTTSTDNAKNTAYLQMNDLKPEDTATYYCALLGRTGGHCTDPNEYSYWGQGTQVTVSS
notes: also called αTir-4; JVI-1 (vector name); not shown: thioredoxin, N-terminal, kept; E-tag, C-terminal, kept
B13: JVB-G8 (VHH)
VHH: TGGGLVQAGGSLRLSCVASGFTFNDYVLTWFRQAPGKGREGVASISPAFGNTFYADSVKGRFTITSDSAKKQVCLQMNNLKSEDTAVYFCAADPTVNFGPVLRAENYRHWGQGTQVTVSS
notes: also called αTir-3; JVG-3 (vector name); not shown: thioredoxin, N-terminal, kept; E-tag, C-terminal, kept
B14: JVC-D10 (VHH)
VHH: TGGLVQTGDSLTLSCVVSGRGFCDWAMAWFRQAPGKEREKVSAIGWSGQDTYYSEPAKGRFTISRDNAKNTVWLRMTNLKSEDTAVYYCAAATRAYADYDYWGQGTQVTVSS
notes: also called αTir-5; JVI-2 (vector name); not shown: thioredoxin, N-terminal, kept; E-tag, C-terminal, kept
B15: JWU-F3 (VHH)
VHH: SGGGLVQPGGSLRLTCVSSLSDFRLTNMAWYRQTPGSERDVVAGISPNGITSYHASVQDRFNISRDNARKTLFLQMNSLKPEDSGVYYCNIRWGSLLPWGQGTQVTVSP
notes: also called JXA-1 (vector name); not shown: thioredoxin, N-terminal, kept; E-tag, C-terminal, kept
B16: JWU-H4 (VHH)
VHH: TGGGSVQPGGSLRLSCAPSGFSLAYYGVGWFRQAPGKEREALACISRFGDDTYYADSAKGRFTVSRDNAKNTVYLEMNNLKPEDTGVYYCAAGWVVVTDESCGSGDAYNYWGRGTQVTVSS
notes: also called JXA-5 (vector name); not shown: thioredoxin, N-terminal, kept; E-tag, C-terminal, kept
B17: JXE-B1 (VHH)
VHH: TGGGLVQAGDSLRLSCAASSGRNFSNYATGWFRQAPGKEQEFVASISRSGRSTYYADSAKGRFTISRDNARNTVYLQMNSLKPEDTADYYCAAHETQWPNGLGWVRGFYDLWGQGTQVTVSS
notes: also called JXK-1 (vector name); not shown: thioredoxin, N-terminal, kept; E-tag, C-terminal, kept
B18: JYB-B8 (VHH)
VHH: TGGGLVQPGGSLRLSCAASGFTFSTYWMYWVRQAPGKGLEWVSTIDTGGSDTYYADSVKGRFTISRDNVKNTLYLQMDNLKPEDTALYYCGSSRDIVIVTTLRDFDYWGQGTQVTVFS
notes: also called αEspA-6; JYE-2 (vector name); not shown: thioredoxin, N-terminal, kept; E-tag, C-terminal, kept
B19: JXF-H9 (VHH)
VHH: SGGGLAQTGGSLRLSCAASGFRLEYYAVGWFRQAPGKEREGVSCLSGSDGSTYNAEFAKGRFTISRDDAKNTVYLLMNSLKPEDTAVYYCAVAGPSDYQCDLGTRWYHRWGQGTVVTVSA
notes: also called αEspA-3; JXM-12 (vector name); not shown: thioredoxin, N-terminal, kept; E-tag, C-terminal, kept
B20: JYB-B1 (VHH)
VHH: TGGGLVQAGGSLRLSCAISGFSLGDYAIGWFRQAPEKEREGVAFSGSLGNTYYPDSMKGRFTISRDDAENAVYLEMKNLKPEDTAVYRCTSGGTFDAVVLGLSTYWGQGTQVTVSS
notes: also called αEspA-5; JYE-1 (vector name); not shown: thioredoxin, N-terminal, kept; E-tag, C-terminal, kept
B21: JYB-H4 (VHH)
VHH: SGGGLVQPGGSLRLSCAASGVTLEYYAIGWFRQVPGKEREGVSCISTSGAGTNYADSVKGRFTISKDNAKNTVYLQMNSLKPEDTAVYYCAARDFTEVPIGGCEWEYDYWGQGTQVTVSS
notes: also called αEspA-8; JYE-4 (vector name); not shown: thioredoxin, N-terminal, kept; E-tag, C-terminal, kept
B22: JXF-D8 (VHH)
VHH: SGGALVQPGGSLRLSCAASGINLDYYAIGWFRQAPGKERKGVSCISHVDDDRIYYSDSVKGRFTISRDNAKNTVYLQMNSLEPEDTAVYYCATAGPSDYPCDLELWTYRRWGQGTQVTVSS
notes: also called αEspA-2; JXM-8 (vector name); not shown: thioredoxin, N-terminal, kept; E-tag, C-terminal, kept
B23: JXF-C4 (VHH)
VHH: SGGGLVQAGGSLRLSCVAYGRTANTFKEYAMGWFRHNPGEDHEFVGGISQNGDEAYFDDSVKGRFTPSRDNAKNTMYLQMNSLRPEDTAAYYCVAQRSSERLVGDMYSAMDSWGKGTLVTVST
notes: also called αEspA-4; JXM-15 (vector name); not shown: thioredoxin, N-terminal, kept; E-tag, C-terminal, kept
B24: JYB-D1 (VHH)
VHH: TGGGLVQAGGSLRLSCAASGNTFSYTAMAWFRQAPGKQRELVARISSGRGPTKYADSVKGRFTISRDNTLNTVWLQMNDLKPEDTAVYFCNTLKYSGESSYIAGDSWGQGTQVTVSS
notes: also called αEspA-7; JYE-3 (vector name); not shown: thioredoxin, N-terminal, kept; E-tag, C-terminal, kept
B25: JXF-D7 (VHH)
VHH: SGGGLVQTGGSLRLSCSASGFALEYYAVGWFRQAPGKEREGVSCFSGSDGSKFHAQFVKGRFTISLDKEKNTVDLTMNNLKPEDTAVYYCAVAGPSDHQCDLGMTWYHRWGQGTQVTVSS
notes: also called αEspA-1; JXM-6 (vector name); not shown: thioredoxin, N-terminal, kept; E-tag, C-terminal, kept
B26: JYB-H6 (VHH)
VHH: TGGGLVQPGGSLRLSCVASGFILDAYTIGWFRQAPGKEREGVASINGSGFSTNYADSVKGRFTISRDNAKNTVWLQMNSLKPEDTAVYYCAAALGLLTPRLESTPFDDWGQGTQVTVSS
notes: also called αEspA-9; JYE-5 (vector name); not shown: thioredoxin, N-terminal, kept; E-tag, C-terminal, kept
B27: JWT-C1 (VHH)
VHH: SGGLVQPGGSLRLSCAASGFTLANSAIGWFRQAPGKGREAVSCISTSAGTTNYASSVKGRFTTARDNAKNMAYLQMDNLKSGDTGVYECAAGWSIDCSGYILPAADVWGQGTQVTVSS
notes: also called αInt-13; JWZ-7 (vector name)

The first assay deals with T1, EPEC Tir (enteropathogenic E. coli (EPEC), UniProt B7UM99).
T1 construct: also called GST-tagged EPEC Tir; recombinant his-tagged Tir
In words: ELISA; capture dilution ELISA; plate coated with 5 μg/mL of a non-competing VHH (no thioredoxin, no E-tag), antigen at 1 μg/mL captured for 1 h at 37°C (S1 Fig c-d: EPEC Tir, REPEC Tir); thioredoxin/VHH/E-tag from 125 nM in 1:5 serial dilutions; HRP anti-E-tag; EC50 estimates (apparent affinity); trace = EC50 >125 nM. The following applies: both partners purified.
As to B1, the concentration giving a half-maximal response (EC50) is 500 pM. Regarding B2, the concentration for a half-maximal effect (EC50) is 10000 pM. As to B3, the concentration for a half-maximal effect (EC50) was 5000 pM. Consider B4, for which the concentration giving a half-maximal response (EC50) was 200 pM. B5: the EC50 was 100 pM. Take B6: the 50% effective concentration (EC50) is 200 pM. The same measure, in the same setting: the same measure for B7: 25000 pM.

For the molecule B8, the half-maximal effective concentration (EC50) is 200 pM. As to B9, the half-maximal effective concentration (EC50) was 200 pM. Still for that read-out and setting: the figure for B10 is 50000 pM; for B11 it is 200 pM.

For the molecule B12, the half-maximal effective concentration (EC50) was 200 pM. With B13, the EC50 was 200 pM. Consider B14, for which the EC50 was 200 pM.

The target of the next assay is EPEC flagella (Escherichia coli O127:H6 E2348/69 (EPEC), UniProt B7USU2). The assay is described as follows: ELISA; dilution ELISA; purified antigen coated directly on Nunc Maxisorp wells, typically 1 μg/mL in PBS overnight at 4°C, blocked with 4% milk in PBS 0.1% Tween; thioredoxin/VHH/E-tag from 125 nM in 1:5 serial dilutions, 1 h 37°C; detected with HRP anti-E-tag; EC50 estimates (apparent affinity); Trace = EC50 >125 nM, poor but detectable. As to conditions: both partners purified.
On to B15, for which the EC50 was 200 pM. In the case of B16, the EC50 was 10000 pM. Turning to B17, the EC50 is 100 pM.

A further assay deals with C. rodentium EspA (Citrobacter rodentium ICC168 (parent of …, UniProt D2TKE3)). Described as above. The following applies: both partners purified.
Take B18: the EC50 was 700 pM. The same measure, in the same setting: the same measure for B19: 700 pM; for B20: 300 pM. For the molecule B21, the EC50 was 500 pM.

Consider B22, for which the EC50 is 700 pM. Turning to B23, the concentration for a half-maximal effect (EC50) was 700 pM.

For the molecule B24, the half-maximal effective concentration (EC50) was 3000 pM. B25: the 50% effective concentration (EC50) was 700 pM. B26: the concentration giving a half-maximal response (EC50) is 300 pM.

Another assay addresses T2, EHEC intimin (Escherichia coli O157:H7 EDL933 (EHEC), UniProt P43261).
T2 construct: also called recombinant intimin (EHEC)
Described as above. As to conditions: both partners purified.
With B27, the concentration for a half-maximal effect (EC50) is 500 pM.
